The chains are these.
T1: Spd1 (full-length) (S. pombe, UniProt Q10585 1-124)
T1 construct: Spd1 of S. pombe; also called 15N-Spd1
T1 sequence (looked up): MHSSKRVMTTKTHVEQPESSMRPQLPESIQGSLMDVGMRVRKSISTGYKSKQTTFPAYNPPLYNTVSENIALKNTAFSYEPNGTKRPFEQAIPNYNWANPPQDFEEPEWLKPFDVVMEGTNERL

B1: wild-type Dss1 peptide (peptide)
peptide: Ac-GDDTLWENNWDDEDI-NH2
notes: also called WT Dss1 peptide; UBS1 from Dss1; source: synthetic peptide, bought: TAG Copenhagen
B2: PepDMD (peptide)
peptide: Ac-DLWEDDWDLWEDDWD-NH2
notes: PepDM with the asparagines of the core substituted with aspartates; also called DMD peptide; source: synthetic peptide, bought: TAG Copenhagen
B3: PepDM (peptide)
peptide: Ac-DLWENNWDLWENNWD-NH2
notes: core motif WENNW of S. pombe Dss1 (O14140) repeated; also called double motif; Pep43 (as soluble peptide); source: synthetic peptide, bought: TAG Copenhagen
B4: PepDWD (peptide)
peptide: Ac-DDTLWWEDDWWDDED-NH2
notes: PepDW with the two asparagines of the core substituted with aspartates; also called DWD peptide; source: synthetic peptide, bought: TAG Copenhagen
B5: PepDW (peptide)
peptide: Ac-DDTLWWENNWWDDED-NH2
notes: UBS1 of S. pombe Dss1 (O14140) with two extra tryptophans; also called double tryptophan; Pep42 (as soluble peptide); source: synthetic peptide, bought: TAG Copenhagen
B6: Dss1 N71C (mentioned as "Dss1 WT") (natural protein, S. pombe, UniProt O14140 1-71, looked up)
chain: MSRAALPSLENLEDDDEFEDFATENWPMKDTELDTGDDTLWENNWDDEDIGDDDFSVQLQAELKKKGVAAC
notes: Dss1 (deleted in split hand/split foot 1) of S. pombe; Used unlabelled, 15N- or 13C,15N-labelled; also called full-length Dss1; WT Dss1; source: E. coli BL21(DE3), purified (nickel Sepharose, ULP1 cleavage, reversed phase); not shown: His6-SUMO, N-terminal, cleaved
B7: S. pombe ubiquitin with an N-terminal 6xhistidine-tag, TEV-cleavage site and an N-terminal free cysteine (natural protein)
chain: not shown
notes: ubiquitin of S. pombe, the cut product of its precursors; An added free cysteine stands N-terminal of ubiquitin together with the tag and the TEV linker; Used 15N-labelled or unlabelled; also called 15N-labeled ubiquitin; 15N-ubiquitin; source: E. coli BL21(DE3), purified (nickel Sepharose, SEC); not shown: His6, N-terminal, kept; TEV cleavage site, N-terminal, kept

For one test, the target named is B7. The test is described as follows: NMR titration; 100 µM 15N-ubiquitin, unlabelled peptide or protein added or titrated (peptides to 1 mM, WT Dss1 peptide to 5 mM); 20 mM NaH2PO4, 150 mM NaCl, 5 mM TCEP, pH 7.5; CSPs of 1H-15N-HSQC, global fit to a one-site model. The settings on record: both partners purified.
As usually defined, the Kd is the concentration at which binding is half-saturated. Take B1: the Kd is 3000 ± 200 µM.

Take B2: the dissociation constant Kd was 480 ± 40 µM.

Molecule B3 had a Kd of 1300 ± 120 µM.

For B4, the dissociation constant (Kd) amounted to 600 ± 30 µM.

The molecule B5 returned a Kd of 1200 ± 90 µM.

Take B6: the Kd was 380 ± 40 µM.

For the next test, the target named is T1, Spd1 (full-length). In words: NMR titration; 30 µM 15N-Spd1 with 560 µM ubiquitin added; CSPs mapped on Spd1. The settings on record: both partners purified.
For B7, the binding result is “binds”.

Source of the values: article PMC9381478 (Cellular and Molecular Life Sciences: CMLS, 2022).
